According to paper doi:10.1101/2021.10.29.466147 (bioRxiv, 2021):
Numbering of substitutions follows the chain as printed. Names may count otherwise.

B1: Smc2 K639C, the Smc2 part of the Smc2–TEV–Brn1 fusion (SMC-kleisin ring circularization in vitro) (natural protein, S. cerevisiae)
chain: MKVEELIIDGFKSYATRTVITDWDPQFNAITGLNGSGKSNILDAICFVLGIASMSTVRASSLQDLIYKRGQAGVTKASVTIVFDNTDKSNSPIGFTNSPQISVTRQVVLGGTSKYLINGHRAPQQSVLQLFQSVQLNINNPNFLIMQGKITKVLNMKPSEILSLIEEAAGTKMFEDRREKAERTMSKKETKLQENRTLLTEEIEPKLEKLRNEKRMFLEFQSTQTDLEKTERIVVSYEYYNIKHKHTSIRETLENGETRMKMLNEFVKKTSEEIDSLNEDVEEIKLQKEKELHKEGTISKLENKENGLLNEISRLKTSLSIKVENLNDTTEKSKALESEIASSSAKLIEKKSAYANTEKDYKMVQEQLSKQRDLYKRKEELVSTLTTGISSTGAADGGYNAQLAKAKTELNEVSLAIKKSSMKMELLKKELLTIEPKLKEATKDNELNVKHVKQCQETCDKLRARLVEYGFDPSRIKDLKQREDKLKSHYYQTCKNSEYLKRRVTNLEFNYTKPYPNFEASFVHGVVGQLFQIDNDNIRYATALQTCAGGRLFNVVVQDSQTATQLLERGRLRKRVTIIPLDKIYTRPISSQVLDLAKKIAPGKVELAINLIRFDESITKAMEFIFGNSLICEDPETACKITFHPKIRARSITLQGDVYDPEGTLSGGSRNTSESLLVDIQKYNQIQKQIETIQADLNHVTEELQTQYATSQKTKTIQSDLNLSLHKLDLAKRNLDANPSSQIIARNEEILRDIGECENEIKTKQMSLKKCQEEVSTIEKDMKEYDSDKGSKLNELKKELKLLAKELEEQESESERKYDLFQNLELETEQLSSELDSNKTLLHNHLKSIESLKLENSDLEGKIRGVEDDLVTVQTELNEEKKRLMDIDDELNELETLIKKKQDEKKSSELELQKLVHDLNKYKSNTNNMEKIIEDLRQKHEFLEDFDLVRNIVKQNEGIDLDTYRERSKQLNEKFQELRKKVNPNIMNMIENVEKKEAALKTMIKTIEKDKMKIQETISKLNEYKRETLVKTWEKVTLDFGNIFADLLPNSFAKLVPCEGKDVTQGLEVKVKLGNIWKESLIELSGGQRSLIALSLIMALLQFRPAPMYILDEVDAALDLSHTQNIGHLIKTRFKGSQFIVVSLKEGMFANANRVFRTRFQDGTSVVSIM
B2: Smc2 E1113Q (Walker B mutant, EQ) of the S. cerevisiae condensin holo complex (natural protein)
chain: B1 chain with C639K, E1113Q
B3: Brn1 K709C, the Brn1 part of the Smc2–TEV–Brn1 fusion (SMC-kleisin ring circularization in vitro) (natural protein, S. cerevisiae)
chain: MTTQLRYENNDDDERVEYNLFTNRSTMMANFEEWIKMATDNKINSRNSWNFALIDYFYDLDVLKDGENNINFQKASATLDGCIKIYSSRVDSVTTETGKLLSGLAQRKTNGASNGDDSNGGNGEGLGGDSDEANIEIDPLTGMPISNDPDVNNTRRRVYNRVLETTLVEFETIKMKELDQELIIDPLFKKALVDFDEGGAKSLLLNTLNIDNTARVIFDASIKDTQNVGQGKLQRKEEELIERDSLVDDENEPSQSLISTRNDSTVNDSVISAPSMEDEILSLGMDFIKFDQIAVCEISGSIEQLRNVVEDINQAKDFIENVNNRFDNFLTEEELQAAVPDNAEDDSDGFDMGMQQELCYPDENHDNTSHDEQDDDNVNSTTGSIFEKDLMAYFDENLNRNWRGREHWKVRNFKKANLVNKESDLLEETRTTIGDTTDKNTTDDKSMDTKKKHKQKKVLEIDFFKTDDSFEDKVFASKGRTKIDMPIKNRKNDTHYLLPDDFHFSTDRITRLFIKPGQKMSLFSHRKHTRGDVSSGLFEKSTVSANHSNNDIPTIADEHFWADNYERKEQEEKEKEQSKEVGDVVGGALDNPFEDDMDGVDFNQAFEGTDDNEEASVKLDLQDDEDHKFPIRENKVTYSRVSKKVDVRRLKKNVWRSINNLIQEHDSRKNREQSSNDSETHTEDESTKELKFSDIIQGISKMYSDDTLCDISTSFCFICLLHLANEHGLQITHTENYNDLIVNYEDLATTQAAS

What was measured:
[1] = molecular target: T1, Smc4 V721C, R1417C (SMC-kleisin ring circularization in vitro) (S. cerevisiae, UniProt Q12267 1-1418, V721C | R1417C); assay: cross-linking
T1 sequence: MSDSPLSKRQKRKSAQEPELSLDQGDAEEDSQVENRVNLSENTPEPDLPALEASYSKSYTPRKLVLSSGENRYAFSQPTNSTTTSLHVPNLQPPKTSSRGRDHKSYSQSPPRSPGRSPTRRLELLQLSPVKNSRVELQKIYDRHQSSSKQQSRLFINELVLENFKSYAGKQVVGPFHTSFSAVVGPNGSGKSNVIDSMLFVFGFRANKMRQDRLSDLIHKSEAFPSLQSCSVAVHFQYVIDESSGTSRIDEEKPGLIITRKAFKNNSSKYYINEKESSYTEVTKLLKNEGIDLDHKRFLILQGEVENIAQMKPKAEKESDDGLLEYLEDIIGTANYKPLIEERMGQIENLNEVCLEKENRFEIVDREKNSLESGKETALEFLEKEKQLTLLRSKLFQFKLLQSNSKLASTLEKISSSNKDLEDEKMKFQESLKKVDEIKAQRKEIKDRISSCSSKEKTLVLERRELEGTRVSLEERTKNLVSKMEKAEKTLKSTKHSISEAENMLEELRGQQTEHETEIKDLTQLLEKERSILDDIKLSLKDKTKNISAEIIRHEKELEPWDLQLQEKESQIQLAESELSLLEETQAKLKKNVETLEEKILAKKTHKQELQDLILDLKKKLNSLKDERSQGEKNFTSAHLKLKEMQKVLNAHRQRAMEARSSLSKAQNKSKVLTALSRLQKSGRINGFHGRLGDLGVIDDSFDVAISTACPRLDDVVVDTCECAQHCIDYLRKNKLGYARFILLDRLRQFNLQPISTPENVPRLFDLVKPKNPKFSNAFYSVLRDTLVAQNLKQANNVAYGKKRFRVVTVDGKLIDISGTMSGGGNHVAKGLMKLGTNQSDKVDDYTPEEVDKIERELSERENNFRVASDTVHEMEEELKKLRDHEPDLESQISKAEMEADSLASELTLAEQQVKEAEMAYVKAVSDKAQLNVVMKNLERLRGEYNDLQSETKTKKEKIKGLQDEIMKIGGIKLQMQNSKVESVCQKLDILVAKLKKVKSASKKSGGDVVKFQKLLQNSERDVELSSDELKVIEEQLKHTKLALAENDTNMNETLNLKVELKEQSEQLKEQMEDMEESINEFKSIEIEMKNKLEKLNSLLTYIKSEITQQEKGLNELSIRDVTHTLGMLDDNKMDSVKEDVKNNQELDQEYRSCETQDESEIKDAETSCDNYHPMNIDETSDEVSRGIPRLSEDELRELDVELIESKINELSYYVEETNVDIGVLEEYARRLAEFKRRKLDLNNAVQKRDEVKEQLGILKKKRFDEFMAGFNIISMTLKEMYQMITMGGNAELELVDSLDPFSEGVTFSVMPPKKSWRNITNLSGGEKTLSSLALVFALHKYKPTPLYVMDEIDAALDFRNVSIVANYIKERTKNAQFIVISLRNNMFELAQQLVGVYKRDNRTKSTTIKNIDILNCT

[2] = molecular target: T2, Ycs4, HEAT-repeat subunit I of S. cerevisiae condensin (S. cerevisiae, UniProt Q06156 1-1176); assay: cryo-EM structure
T2 sequence: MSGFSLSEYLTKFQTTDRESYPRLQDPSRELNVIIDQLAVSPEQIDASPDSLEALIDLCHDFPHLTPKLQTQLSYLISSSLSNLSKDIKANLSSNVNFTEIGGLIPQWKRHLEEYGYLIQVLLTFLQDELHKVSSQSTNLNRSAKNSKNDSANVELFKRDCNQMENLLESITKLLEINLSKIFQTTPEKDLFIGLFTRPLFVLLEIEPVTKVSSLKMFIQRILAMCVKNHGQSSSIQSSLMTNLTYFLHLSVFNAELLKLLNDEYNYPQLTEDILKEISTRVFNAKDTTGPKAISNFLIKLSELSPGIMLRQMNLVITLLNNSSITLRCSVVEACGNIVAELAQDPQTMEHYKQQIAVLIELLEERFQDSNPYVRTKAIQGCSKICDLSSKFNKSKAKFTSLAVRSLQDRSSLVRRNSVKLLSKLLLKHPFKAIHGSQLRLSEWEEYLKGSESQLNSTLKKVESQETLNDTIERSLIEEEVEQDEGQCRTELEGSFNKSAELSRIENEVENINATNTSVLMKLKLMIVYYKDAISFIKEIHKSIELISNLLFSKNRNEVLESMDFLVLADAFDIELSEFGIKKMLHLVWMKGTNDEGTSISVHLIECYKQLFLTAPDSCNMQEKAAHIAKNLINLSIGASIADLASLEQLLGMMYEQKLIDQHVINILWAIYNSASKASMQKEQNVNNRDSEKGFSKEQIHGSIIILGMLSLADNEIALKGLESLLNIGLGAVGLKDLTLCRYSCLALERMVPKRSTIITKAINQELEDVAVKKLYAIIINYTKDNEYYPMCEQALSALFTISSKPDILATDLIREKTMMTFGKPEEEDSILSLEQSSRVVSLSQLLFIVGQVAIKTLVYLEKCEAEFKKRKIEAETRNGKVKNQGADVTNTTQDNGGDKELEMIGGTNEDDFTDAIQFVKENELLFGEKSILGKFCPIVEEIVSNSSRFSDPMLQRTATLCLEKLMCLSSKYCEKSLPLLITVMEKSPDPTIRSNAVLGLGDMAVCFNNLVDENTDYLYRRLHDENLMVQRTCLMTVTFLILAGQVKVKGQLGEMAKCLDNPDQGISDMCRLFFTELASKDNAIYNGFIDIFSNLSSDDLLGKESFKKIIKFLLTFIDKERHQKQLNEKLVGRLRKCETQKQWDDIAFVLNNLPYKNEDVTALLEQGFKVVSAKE

binding result [1] | binding result [2] | Binder
binds | – | B1
– | binds | B2
binds | – | B3
